The values that follow come from FireProtDB (doi:10.1111/j.1432-1033.1994.tb18652.x).

For the data set the following is noted: Aspergillus oryzae (strain ATCC 42149 / RIB 40), pH 6, Thermal, DSC, sodium acetate calcium acetate 20 mM 2 mM, Mops 50 mM, reversible: yes, whole UniProt chain shown.

B1: Guanyl-specific ribonuclease T1 wild type, P00651 (protein)
chain: MMYSKLLTLTTLLLPTALALPSLVERACDYTCGSNCYSSSDVSTAQAAGYQLHEDGETVGSNSYPHKYNNYEGFDFSVSSPYYEWPILSSGDVYSGGSPGADRVVFNENNQLAGVITHTGASGNNFVECT
As usually defined, the Tm is the temperature at which the thermal transition is half complete. Regarding B1, the Tm worked out at 57.2 °C and the “unfolding enthalpy (calorimetric)” value turned out to be 96.6 kcal/mol. Further, for the setting “25 °C”, the “heat capacity change of unfolding” value is 0.98 kcal/mol/K and the unfolding free energy is 7.82 kcal/mol.
